From US20110217334A1

Molecular target: serum IgE of birch pollen allergic individuals
Assay: ELISA inhibition, Bet v 1a immobilized, BM4 as inhibitor in serial dilutions

B1: BM4 (protein)
chain: GVFNYETETTSVIPAARLFKAFILDGDNLFPKVAPQAISSVENIEGNGGPGTIKKISFPEGFPFKYVKDRVDEVDHTNFKYNYSVIEGGPIGDTLEKISNEIKIVATPSGSTIKSISNKYHTKGDHEVKAEQVKASKEMGETLLRAVESYLLAHSDAYN
fold reduced patients' IgE binding capacity compared to Bet v 1a: 100 to 1000 fold
